Test [1] has as its target CE3-HA-B*27:05 (HLA-B*27:05 heavy chain) (human). As to the kind of experiment: non-reducing SDS-PAGE and Western blot of precipitated surface class I. Background: Immunoblotting shows a protein as a band on a membrane.
Test [2] concerns the target GFP-K^b (free heavy chain of H-2K^b with N-terminal monomeric GFP) (murine) (UniProt P01901). The test can be described thus: single-molecule co-tracking.
In test [3] the target is HA-K^b (free heavy chain of H-2K^b with N-terminal HA tag) (murine) (UniProt P01901). The test can be described thus: FRAP.
Test [4] concerns the target isolated, soluble α3 domain of H-2K^b (recombinant) (murine) (UniProt P01901). The test can be described thus: native MS.
The target is the same in test [5]. As to the kind of experiment: SEC.

Broadly, the stoichiometry N is the number of molecules, sites or subunits per partner or assembly. The koff is a measure of how fast the partners let go of each other. The Kd is the equilibrium constant for the complex coming apart.

Take “CE3-HA-B*27:05 (HLA-B*27:05 heavy chain) (natural protein)”: in test [1], the stoichiometry N was determined as 2.

On to “GFP-K^b (free heavy chain of H-2K^b with N-terminal monomeric GFP) (from UniProt P01901 22-369) (natural protein)”, for which, in test [2], the fraction of co-locomoting molecules is 3%, the half-life (t½) came to 0.22 s, the koff amounted to 3.1 s⁻¹ and the stoichiometry N worked out at 2.

“K^b-GFP (free heavy chain of H-2K^b with C-terminal GFP) (from UniProt P01901 22-369) (natural protein)” yielded a half-time of dissociation in test [3] of 140 s.

Turning to “isolated, soluble α3 domain of H-2K^b (recombinant) (from UniProt P01901 205-295) (domain or fragment)”, the stoichiometry N in test [4] came to 2. In addition, in test [5], the Kd fell in the range of 10 to 20 µM and the stoichiometry N came out at 2.

The values above are taken from doi:10.1101/2021.07.02.450866.
